For orientation: Kd means the concentration at which binding is half-saturated. The koff is the first-order rate constant of dissociation. One may read the kon as the second-order rate constant of association.

Data on nine molecules can be found in patent publication US20220144943A1 (INTEGRITY BIOVENTURES, published 2022).

B1: HC1 (SEQ ID NO: 123) + LC2 (SEQ ID NO: 127) (antibody, human IgG4 S228P, kappa, V domains shown)
VH: QVQLVQSGAEVKKPGASVKVSCKASGYAFTNYLIEWVRQAPGQGLEWMGVINPGSGATNYNQKFQGRVTMTADKSISTAYMELSRLRSDDTAVYFCARRVYFDYWGQGTLVTVSS
VL: EIVMTQSPATLSLSPGERATLSCRASQSISDYLHWYQQKPGQAPRLLIKYASQSISGIPARFSGSGSGSDFTLTISSLEPEDFAVYYCQNGHSFPLTFGQGTKLEIKR
notes: also called HC1 + LC2
B2: HC2 (SEQ ID NO: 124) + LC1 (SEQ ID NO: 126) (antibody, human IgG4 S228P, kappa, V domains shown)
VH: QVQLVQSGAEVKKPGASVKVSCKASGYAFTNYLIEWVRQAPGQGLEWIGVINPGSGATNYNQKFQGRVTLTADKSISTAYMELSRLRSDDTAVYFCARRVYFDYWGQGTLVTVSS
VL: EIVLTQSPATLSLSPGERATLSCRASQSISDYLHWYQQKPGQAPRLLIKYASQSITGIPARFSGSGSGTDFTLTISSLEPEDFAVYYCQNGHSFPLTFGQGTKLEIKR
notes: also called HC2 + LC1
B3: HC1 (SEQ ID NO: 123) + LC1 (SEQ ID NO: 126) (antibody, human IgG4 S228P, kappa, V domains shown)
VH: QVQLVQSGAEVKKPGASVKVSCKASGYAFTNYLIEWVRQAPGQGLEWMGVINPGSGATNYNQKFQGRVTMTADKSISTAYMELSRLRSDDTAVYFCARRVYFDYWGQGTLVTVSS
VL: EIVLTQSPATLSLSPGERATLSCRASQSISDYLHWYQQKPGQAPRLLIKYASQSITGIPARFSGSGSGTDFTLTISSLEPEDFAVYYCQNGHSFPLTFGQGTKLEIKR
notes: also called HC1 + LC1
B4: HC3 (SEQ ID NO: 125) + LC3 (SEQ ID NO: 128) (antibody, human IgG4 S228P, kappa, V domains shown)
VH: QVQLVQSGAEVKKPGASVKVSCKASGYAFTNYLIEWVRQAPGQGLEWMGVINPGSGATNYNQKFQGRVTMTADKSTSTVYMELSSLRSEDTAVYFCARRVYFDYWGQGTLVTVSS
VL: DIVMTQSPATLSLSPGERATLSCRASQSISDYLHWYQQKPGQAPRLLIKYASQSISGIPARFSGSGSGTDFTLTISSLEPEDFAVYYCQNGHSFPLTFGQGTRLEIKR
notes: also called HC3 + LC3
B5: HC3 (SEQ ID NO: 125) + LC2 (SEQ ID NO: 127) (antibody, human IgG4 S228P, kappa, V domains shown)
VH: QVQLVQSGAEVKKPGASVKVSCKASGYAFTNYLIEWVRQAPGQGLEWMGVINPGSGATNYNQKFQGRVTMTADKSTSTVYMELSSLRSEDTAVYFCARRVYFDYWGQGTLVTVSS
VL: EIVMTQSPATLSLSPGERATLSCRASQSISDYLHWYQQKPGQAPRLLIKYASQSISGIPARFSGSGSGSDFTLTISSLEPEDFAVYYCQNGHSFPLTFGQGTKLEIKR
notes: also called HC3 + LC2
B6: HC2 (SEQ ID NO: 124) + LC2 (SEQ ID NO: 127) (antibody, human IgG4 S228P, kappa, V domains shown)
VH: QVQLVQSGAEVKKPGASVKVSCKASGYAFTNYLIEWVRQAPGQGLEWIGVINPGSGATNYNQKFQGRVTLTADKSISTAYMELSRLRSDDTAVYFCARRVYFDYWGQGTLVTVSS
VL: EIVMTQSPATLSLSPGERATLSCRASQSISDYLHWYQQKPGQAPRLLIKYASQSISGIPARFSGSGSGSDFTLTISSLEPEDFAVYYCQNGHSFPLTFGQGTKLEIKR
notes: also called HC2 + LC2
B7: HC1 (SEQ ID NO: 123) + LC3 (SEQ ID NO: 128) (antibody, human IgG4 S228P, kappa, V domains shown)
VH: QVQLVQSGAEVKKPGASVKVSCKASGYAFTNYLIEWVRQAPGQGLEWMGVINPGSGATNYNQKFQGRVTMTADKSISTAYMELSRLRSDDTAVYFCARRVYFDYWGQGTLVTVSS
VL: DIVMTQSPATLSLSPGERATLSCRASQSISDYLHWYQQKPGQAPRLLIKYASQSISGIPARFSGSGSGTDFTLTISSLEPEDFAVYYCQNGHSFPLTFGQGTRLEIKR
notes: also called HC1 + LC3
B8: HC3 (SEQ ID NO: 125) + LC1 (SEQ ID NO: 126) (antibody, human IgG4 S228P, kappa, V domains shown)
VH: QVQLVQSGAEVKKPGASVKVSCKASGYAFTNYLIEWVRQAPGQGLEWMGVINPGSGATNYNQKFQGRVTMTADKSTSTVYMELSSLRSEDTAVYFCARRVYFDYWGQGTLVTVSS
VL: EIVLTQSPATLSLSPGERATLSCRASQSISDYLHWYQQKPGQAPRLLIKYASQSITGIPARFSGSGSGTDFTLTISSLEPEDFAVYYCQNGHSFPLTFGQGTKLEIKR
notes: also called HC3 + LC1
B9: HC2 (SEQ ID NO: 124) + LC3 (SEQ ID NO: 128) (antibody, human IgG4 S228P, kappa, V domains shown)
VH: QVQLVQSGAEVKKPGASVKVSCKASGYAFTNYLIEWVRQAPGQGLEWIGVINPGSGATNYNQKFQGRVTLTADKSISTAYMELSRLRSDDTAVYFCARRVYFDYWGQGTLVTVSS
VL: DIVMTQSPATLSLSPGERATLSCRASQSISDYLHWYQQKPGQAPRLLIKYASQSISGIPARFSGSGSGTDFTLTISSLEPEDFAVYYCQNGHSFPLTFGQGTRLEIKR
notes: also called HC2 + LC3

T1 sequence (Q08722 19-139 limits assumed): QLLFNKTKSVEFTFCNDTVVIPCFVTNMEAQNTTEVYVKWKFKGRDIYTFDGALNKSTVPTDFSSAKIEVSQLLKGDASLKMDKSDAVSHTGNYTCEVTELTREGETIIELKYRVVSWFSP

This experiment concerns the target T1, CD47 (UniProt Q08722 19-139, limits assumed).
T1 construct: also called Antigen; Cluster of differentiation 47
Nature of the experiment: Octet HTX BLI, antibody on anti-human Fc biosensors, antigen in solution, 1:1 fit. As for the experimental part:
The affinity of 9 humanized antibody combinations and the chimeric parental antibody was evaluated by Octet. Multi-concentration kinetic experiments were performed on the Octet HTX system (ForteBio). Anti-human Fc biosensors (ForteBio) were hydrated in sample diluent (0.1% BSA in PBS and 0.02% Tween 20) and preconditioned in pH 1.9 Glycine. Antigen was diluted by a 7 point, 3 fold serial dilution starting at 500 nM with sample diluent. Antibodies were diluted to 2 ug/mL with sample diluent and then immobilized onto anti-human Fc biosensors. After baselines were established for 30 seconds in sample diluent, the biosensors were moved to wells containing serially diluted antigen to measure the association and dissociation. […] The binding affinities were characterized by fitting the kinetic sensorgrams to a monovalent binding model (1:1 binding).
In the case of B1, the Kd came out at 26 nM, the koff worked out at 0.0041 s⁻¹ and the kon amounted to 160000 M⁻¹ s⁻¹.
For B2, in that order: 22 nM, 0.0035 s⁻¹ and 160000 M⁻¹ s⁻¹.
On to B3, for which the Kd was 15 nM, the koff is 0.0025 s⁻¹ and the kon worked out at 160000 M⁻¹ s⁻¹.
Consider B4, for which the Kd was 15 nM, the koff stood at 0.0025 s⁻¹ and the kon was 170000 M⁻¹ s⁻¹.
For B5, the Kd was 29 nM, the koff came out at 0.0036 s⁻¹ and the kon came out at 120000 M⁻¹ s⁻¹.
For B6, in that order: 18 nM, 0.003 s⁻¹ and 170000 M⁻¹ s⁻¹.
For B7, in that order: 15 nM, 0.0027 s⁻¹ and 180000 M⁻¹ s⁻¹.
Consider B8, for which the Kd is 12 nM, the koff was determined as 0.0025 s⁻¹ and the kon amounted to 220000 M⁻¹ s⁻¹.
For B9, in that order: 23 nM, 0.0034 s⁻¹ and 150000 M⁻¹ s⁻¹.
